Test results from patent US20200140566A1 (CLEVELAND CLINIC FOUNDATION, published 2020).
Numbering of substitutions follows the chain as printed. Values joined by “and” are separate entries in the source; they are usually repeats but may differ in a detail not shown here. Identical values can stand only once.

T1: CD6 on Jurkat cells (human, UniProt P30203 18-668)
T1 construct: whole, on cells; the target is inferred from the antibodies' specificity
T1 sequence (looked up): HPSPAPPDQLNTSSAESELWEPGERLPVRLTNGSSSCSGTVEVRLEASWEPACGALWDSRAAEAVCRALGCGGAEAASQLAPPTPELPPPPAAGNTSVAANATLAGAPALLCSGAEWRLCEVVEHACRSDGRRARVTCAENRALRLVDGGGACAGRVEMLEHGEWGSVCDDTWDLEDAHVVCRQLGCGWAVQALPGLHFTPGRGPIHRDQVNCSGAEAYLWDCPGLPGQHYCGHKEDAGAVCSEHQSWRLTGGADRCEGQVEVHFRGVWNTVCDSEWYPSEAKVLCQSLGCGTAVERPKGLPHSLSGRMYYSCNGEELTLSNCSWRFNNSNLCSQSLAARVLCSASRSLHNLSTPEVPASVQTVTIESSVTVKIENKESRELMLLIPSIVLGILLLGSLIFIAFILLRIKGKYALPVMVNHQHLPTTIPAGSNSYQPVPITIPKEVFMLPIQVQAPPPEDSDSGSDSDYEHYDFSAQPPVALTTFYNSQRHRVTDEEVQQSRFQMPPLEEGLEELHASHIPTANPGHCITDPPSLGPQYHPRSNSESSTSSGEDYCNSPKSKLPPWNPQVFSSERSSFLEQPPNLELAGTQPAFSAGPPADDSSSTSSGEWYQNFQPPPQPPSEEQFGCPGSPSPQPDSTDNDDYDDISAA

T2: rhCD6-Fc (human, UniProt P30203 25-398, limits assumed)
T2 construct: also called rhCD6-Fc chimera; antigen rhCD6-Fc; not shown: Fc part
T2 sequence (looked up): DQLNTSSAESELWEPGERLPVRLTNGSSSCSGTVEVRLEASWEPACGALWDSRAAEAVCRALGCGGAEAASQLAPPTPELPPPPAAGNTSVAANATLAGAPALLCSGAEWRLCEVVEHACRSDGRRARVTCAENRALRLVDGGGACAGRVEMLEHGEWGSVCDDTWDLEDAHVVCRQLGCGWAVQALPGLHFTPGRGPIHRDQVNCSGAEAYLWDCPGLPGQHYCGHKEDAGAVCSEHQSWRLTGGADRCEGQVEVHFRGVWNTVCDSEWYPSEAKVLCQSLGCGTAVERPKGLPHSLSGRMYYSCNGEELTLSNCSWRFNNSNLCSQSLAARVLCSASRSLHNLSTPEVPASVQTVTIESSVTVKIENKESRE

B1: Humanized IgG6 (from Fab6) (antibody, V domains shown)
VH: QVQLQESGPGLVKPSETLSLTCTVSGFSLSRYSVHWIRQPPGKGLEWIGLIWGGGFTDYNSALKSRVTISKDNSKNQVSLKLSSVTAADTAVYYCAREGVAYWGQGTLVTVSS
VL: DVVMTQSPLSLPVTLGQPASISCKSSQSLLNSDGRTYLNWFQQRPGQSPRRLIYLVSKLDSGVPDRFSGSGSGTDFTLKISRVEAEDVGVYYCWQGTHFPFTFGPGTKVDIKR
notes: Human IgG1 / kappa
B2: Humanized IgG2 (from Fab2) (antibody, V domains shown)
VH: B1 VH with I37V, I48L, V67L
VL: B1 VL
notes: VH2-hIgG1CH and VL-hIgKCL (human IgG1 / kappa)
B3: Humanized IgG4 (from Fab4) (antibody, V domains shown)
VH: B1 VH with L29I
VL: B1 VL
notes: VH4-hIgG1CH and VL-hIgKCL (human IgG1 / kappa; 'IgG4' is the clone number, not the isotype)
B4: Fab2 (Fab, V domains shown)
VH: B1 VH with I37V, I48L, V67L
VL: DVVMTQSPLSLPVTLGQPASISCKSSQSLLNSDGRTYLNWFQQRPGQSPRRLIYLVSKLDSGVPDRFSGSGSGTDFTLKISRVEAEDVGVYYCWQGTHFPFTFGPGTKVDIK
notes: Tested as Fab-SASA secreted into culture medium (pFASEBA vector); also called back-mutation 2; Fab2 clone from CDR grafting
B5: Fab4 (Fab, V domains shown)
VH: B1 VH with L29I
VL: B4 VL
notes: Tested as Fab-SASA secreted into culture medium; also called back-mutation 4
B6: Fab6 (Fab, V domains shown)
VH: B1 VH
VL: B4 VL
notes: Tested as Fab-SASA secreted into culture medium; also called back-mutation 6
B7: Fab5 (Fab, V domains shown)
VH: B1 VH with F27G, I37V, I48L, V67L, K71V, N73T, V78F
VL: B4 VL
notes: Tested as Fab-SASA secreted into culture medium; also called Fab5 R; back-mutation 5
B8: Fab7 (Fab, V domains shown)
VH: B1 VH with F27G, L29I, I37V, I48L, V67L, K71V, N73T, V78F
VL: B4 VL
notes: Tested as Fab-SASA secreted into culture medium; also called back-mutation 7

Target: T1, CD6 on Jurkat cells
Test: flow cytometry on Jurkat cells, antibody at 16 pM
Procedure: (§1) Flow cytometric analysis was performed using the purified antibodies. Jurkat cells were grown to 70-80% confluence and harvested by centrifuge. About 4×10⁵ cells per well were washed with PBS twice. 200 μl of the culture supernatant was added to the cells and incubated at room temperature for 1 hour. After washing with PBS, antibody was added to the cells for the detection of bound humanized IgG. After 30 minutes incubation, the cells were washed twice with PBS and resuspended in PBS. Cells were analyzed for IgG binding by using FACS Calibur (BD Bioscience, San Jose, Calif.) and Flowjo software. The IC₅₀ was analyzed by GraphPad Prism.
(§2) The FACS binding assay was also performed for validation of the Jurkat cell/humanized antibody interaction. Three humanized antibodies show almost equal Jurkat cell binding activity as parent antibody.

| MFI | Binder |
| --- | --- |
| 7.9 | B1 |
| 6.8 | B2 |
| 7.65 | B3 |

Target: T1, CD6 on Jurkat cells
Test: flow cytometry on Jurkat cells, antibody at 80 pM
Procedure: as §1, §2

| MFI | Binder |
| --- | --- |
| 14.8 | B1 |
| 10.9 | B2 |
| 15 | B3 |

Target: T1, CD6 on Jurkat cells
Test: flow cytometry on Jurkat cells, antibody at 3.2 pM
Procedure: as §1, §2

| MFI | Binder |
| --- | --- |
| 6.68 | B1 |
| 6.18 | B2 |
| 6.45 | B3 |

Target: T1, CD6 on Jurkat cells
Test: flow cytometry on Jurkat cells, antibody at 400 pM
Procedure: as §1, §2

| MFI | Binder |
| --- | --- |
| 35.3 | B1 |
| 31 | B2 |
| 37 | B3 |

Target: T1, CD6 on Jurkat cells
Test: flow cytometry on Jurkat cells, antibody at 2000 pM
Procedure: as §1, §2

| MFI | Binder |
| --- | --- |
| 44.1 | B1 |
| 45 | B2 |
| 44.4 | B3 |

Target: T1, CD6 on Jurkat cells
Test: flow cytometry on Jurkat cells, antibody at 10000 pM
Procedure: as §1, §2

| MFI | Binder |
| --- | --- |
| 45.2 | B1 |
| 42.7 | B2 |
| 46.7 | B3 |

Target: T1, CD6 on Jurkat cells
Test: flow cytometry on Jurkat cells, antibody at 0 pM (background)
Procedure: as §1, §2

| MFI | Binder |
| --- | --- |
| 5.45 | B1 |
| 5.45 | B2 |
| 5.45 | B3 |

Target: T2, rhCD6-Fc
Test: SPR (BIAcore T200, 25 C), rhCD6-Fc immobilised on CM5, IgG injected, apparent KD = kd/ka
Procedure: (§3) IgG antibodies were injected through flow cells at a flow rate of 30 μl/min with the concentration ranging from 0.11-27 nM (three-fold serial dilution). Association time was 700 s followed by 3600 s dissociation. At the end of each cycle, sensor surface was regenerated with 10 mM Glycine-HCl, pH 2.0 (100 μl/min, 12 s for 3 times). Responses of reference flow cell and buffer-only injection were double-subtracted from rhCD6-Fcflow cell during each antigen injection cycle. The data of dissociation (kd) and association (ka) rate constants were obtained by fitting binding data to 1:1 binding model using Biacore T200 evaluation software. The apparent equilibrium dissociation constants (KD) were calculated from the ratio of kd over ka.
(§4) Affinity analysis of antigen-antibody interaction. Binding data of each antibody was processed and fitted to 1:1 binding model using Biacore T200 evaluation software. All experiment data could be perfectly fitted to the model (FIG. 14).

| Kd [nM] | Binder |
| --- | --- |
| 0.032 | B1 |
| 0.042 | B2 |
| 0.038 | B3 |

Target: T1, CD6 on Jurkat cells
Test: flow cytometry titration of direct binding on Jurkat cells (the filing calls the midpoint IC50), GraphPad Prism
Procedure: as §1, §2

| EC50 [nM] | Binder |
| --- | --- |
| 0.197 | B1 |
| 0.275 | B2 |
| 0.185 | B3 |

Target: T2, rhCD6-Fc
Test: SPR (BIAcore T200), Fab-SASA from culture medium captured on immobilised BSA, rhCD6-Fc injected, 1:1 fit of off-rate
Procedure: BSA was immobilized onto the sensor chip using amine coupling method. The selected Fab-SASA clones secreted to the culture medium were injected and captured by BSA via SASA (capture phase). After equilibration, antigen rhCD6-Fc was injected for 240 seconds (association phase) followed by the injection of running buffer for 720 seconds (dissociation phase). The surface was regenerated before the injection of another three Fab-SASA clones. The process was repeated until all antibodies were analyzed. Responses of reference flow cell were subtracted from those of Fab-SASA flow cells during each cycle. The binding curves of Fab-SASA clones were aligned at the start of association and normalized at 20 seconds after the stop of antigen injection using the BIAcore T200 evaluation software in order to display a more visualized comparison of antibodies. The off-rates of Fab-SASA clones were obtained from fitting the experimental data locally to 1:1 binding model. The antibodies were ranked by their dissociation rate constants Single cycle kinetics measurement was performed to verify the affinity ranking result. The selected Fab-SASA clones secreted to the culture medium were injected and captured by BSA via SASA (capture phase). After equilibration, a series of concentrations of antigen rhCD6-Fc (1, 3, 9, 27 and 81 nM) were injected for 500 seconds (association phase) followed by the injection of running buffer for 3000 seconds (dissociation phase). The surface was regenerated before another injection of Fab-SASA clones. Responses of reference flow cell and buffer-only injection were double-subtracted from those of Fab-SASA flow cells during each antigen injection cycle. The binding data were fitted to 1:1 binding model using the BIAcore T200 evaluation software.
Five back-mutation clones were constructed based on sequence of Fab2 and homology modeling. Each of DNA sequence encoding the five Fab fragments was inserted into pFASEBA vector for screening of the lead antibodies. The five clones along with Fab2 were screened against rhCD6-Fc for binding test and subsequent off-rate analysis by the BIAcore T200. Three clones were selected for IgG production and characterization due to the low dissociation rate using the BIAcore T200 evaluation software (Table 3).

| koff | Binder |
| --- | --- |
| 2.1e-05 s⁻¹ | B4 |
| 1.9e-05 s⁻¹ | B5 |
| 3.1e-05 s⁻¹ | B6 |
| 0.00053 s⁻¹ and 0.00056 s⁻¹ | B7 |
| 0.00089 s⁻¹ | B8 |

Target: T2, rhCD6-Fc
Test: SPR (BIAcore T200, 25 C), rhCD6-Fc immobilised on CM5, IgG injected 0.11-27 nM, 1:1 fit; column head misprinted 'Kd (1/Ms)'
Procedure: as §3, §4

| koff [s⁻¹] | kon [M⁻¹ s⁻¹] | Binder |
| --- | --- | --- |
| 2.1e-05 | 650000 | B1 |
| 1.3e-05 | 320000 | B2 |
| 1.3e-05 | 350000 | B3 |
